Experimental data published in article PMC10663500, “High-throughput analysis system of interaction kinetics for data-driven antibody design” (Scientific Reports, 2023).

Key:
[1] = molecular target: T1, human programmed cell death protein 1 (hPD-1) C93S (aa 24-167) (Homo sapiens, UniProt Q15116, C93S); test: SPR; Carterra LSA; Fab from the ammonium sulfate precipitate of the culture supernatant immobilised on a NiHC200M chip; hPD-1 (1-1024 nM) or mPD-1-Fc (4-1024 nM) as analyte, fourfold dilution series, no regeneration; HBS-EP pH 7.4, 25 °C; medians over the spots of a construct, KD = koff/kon; conditions: one partner purified
T1 construct: made as a fusion with a TEV site and human Fc; the Fc was cut off with TEV protease; source: Expi293F, purified (Protein A, TEV cleavage of Fc, SEC; monomer fractions); not shown: Fc (human), C-terminal, cleaved
T1 sequence (Q15116 24-167 C93S): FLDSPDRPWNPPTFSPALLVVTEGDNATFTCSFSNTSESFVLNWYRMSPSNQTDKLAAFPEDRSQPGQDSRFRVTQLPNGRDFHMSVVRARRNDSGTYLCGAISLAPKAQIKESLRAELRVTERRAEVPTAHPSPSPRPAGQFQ
Outline: (§1)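 Human PD-1 (1–1024 nM) or mouse PD-1-Fc (4–1024 nM), in fourfold series, was flowed without regeneration over Fabs captured in duplicate on a NiHC200M chip (Carterra LSA, 25 °C), using 10 min association and 5 min dissociation. The Fabs had been recovered from Brevibacillus culture supernatants by ammonium sulfate precipitation and redissolved in HBS-EP. For binding constants, KD was defined as koff/kon from per-construct medians, with rates fitted by the kdka model under slow- or fast-dissociation settings (best fit) and unconfirmed binders set to kon 10^3 […] and koff 10^−2 s^−1.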

[2] = molecular target: T2, mouse programmed cell death protein 1 Fc fusion protein (mPD-1-Fc), mPD-1 C60S (aa 25-167) (Mus musculus, UniProt Q02242, stabilised); test: as above; conditions: one partner purified
T2 construct: not cleaved; source: Expi293F, purified (Protein A, SEC; dimeric fraction); not shown: Fc (human), C-terminal, kept
Outline: as §1

B1: toripalimab Fab L.P100F (Fab, V domains shown)
VH: QGQLVQSGAEVKKPGASVKVSCKASGYTFTDYEMHWVRQAPIHGLEWIGVIESETGGTAYNQKFKGRVTITADKSTSTAYMELSSLRSEDTAVYYCAREGITTVATTYYWYFDVWGQGTTVTVSS
VL: DVVMTQSPLSLPVTLGQPASISCRSSQSIVHSNGNTYLEWYLQKPGQSPQLLIYKVSNRFSGVPDRFSGSGSGTDFTLKISRVEAEDVGVYYCFQGSHVFLTFGQGTKLEIK
notes: as the heavy chain of Sm3; light chain of Sm3 with this change; numbers count from the chain's first residue; source: Brevibacillus, culture supernatant (ammonium sulfate precipitate); not shown: 6xHis, C-terminal, kept; 6xHN, C-terminal, kept
[1]
  Kd: 9 nM
  koff: 6.35e-05 s⁻¹
  kon: 7060 M⁻¹ s⁻¹
[2]
  Kd: < 1.08 nM
  koff: < 1e-05 s⁻¹
  kon: 9270 M⁻¹ s⁻¹

B2: toripalimab Fab L.P100I (Fab, V domains shown)
VH: QGQLVQSGAEVKKPGASVKVSCKASGYTFTDYEMHWVRQAPIHGLEWIGVIESETGGTAYNQKFKGRVTITADKSTSTAYMELSSLRSEDTAVYYCAREGITTVATTYYWYFDVWGQGTTVTVSS
VL: DVVMTQSPLSLPVTLGQPASISCRSSQSIVHSNGNTYLEWYLQKPGQSPQLLIYKVSNRFSGVPDRFSGSGSGTDFTLKISRVEAEDVGVYYCFQGSHVILTFGQGTKLEIK
notes: as for B1
[1]
  Kd: 12.3 nM
  koff: 8.88e-05 s⁻¹
  kon: 7200 M⁻¹ s⁻¹
[2]
  Kd: 23.2 nM
  koff: 0.000324 s⁻¹
  kon: 13900 M⁻¹ s⁻¹

B3: toripalimab Fab L.P100W (Fab, V domains shown)
VH: QGQLVQSGAEVKKPGASVKVSCKASGYTFTDYEMHWVRQAPIHGLEWIGVIESETGGTAYNQKFKGRVTITADKSTSTAYMELSSLRSEDTAVYYCAREGITTVATTYYWYFDVWGQGTTVTVSS
VL: DVVMTQSPLSLPVTLGQPASISCRSSQSIVHSNGNTYLEWYLQKPGQSPQLLIYKVSNRFSGVPDRFSGSGSGTDFTLKISRVEAEDVGVYYCFQGSHVWLTFGQGTKLEIK
notes: as for B1
[1]
  Kd: < 1.54 nM
  koff: < 1e-05 s⁻¹
  kon: 6510 M⁻¹ s⁻¹
[2]
  Kd: 3.6 nM
  koff: 3.39e-05 s⁻¹
  kon: 9410 M⁻¹ s⁻¹

B4: toripalimab Fab L.P100Q (Fab, V domains shown)
VH: QGQLVQSGAEVKKPGASVKVSCKASGYTFTDYEMHWVRQAPIHGLEWIGVIESETGGTAYNQKFKGRVTITADKSTSTAYMELSSLRSEDTAVYYCAREGITTVATTYYWYFDVWGQGTTVTVSS
VL: DVVMTQSPLSLPVTLGQPASISCRSSQSIVHSNGNTYLEWYLQKPGQSPQLLIYKVSNRFSGVPDRFSGSGSGTDFTLKISRVEAEDVGVYYCFQGSHVQLTFGQGTKLEIK
notes: as for B1
[1]
  Kd: 9.25 nM
  koff: 7.95e-05 s⁻¹
  kon: 8600 M⁻¹ s⁻¹
[2]
  Kd: 8.31 nM
  koff: 9.77e-05 s⁻¹
  kon: 11800 M⁻¹ s⁻¹

B5: toripalimab Fab L.P100V (Fab, V domains shown)
VH: QGQLVQSGAEVKKPGASVKVSCKASGYTFTDYEMHWVRQAPIHGLEWIGVIESETGGTAYNQKFKGRVTITADKSTSTAYMELSSLRSEDTAVYYCAREGITTVATTYYWYFDVWGQGTTVTVSS
VL: DVVMTQSPLSLPVTLGQPASISCRSSQSIVHSNGNTYLEWYLQKPGQSPQLLIYKVSNRFSGVPDRFSGSGSGTDFTLKISRVEAEDVGVYYCFQGSHVVLTFGQGTKLEIK
notes: as for B1
[1]
  Kd: 7.83 nM
  koff: 6.3e-05 s⁻¹
  kon: 8040 M⁻¹ s⁻¹
[2]
  Kd: 30.1 nM
  koff: 0.000479 s⁻¹
  kon: 15900 M⁻¹ s⁻¹

B6: toripalimab Fab L.P100T (Fab, V domains shown)
VH: QGQLVQSGAEVKKPGASVKVSCKASGYTFTDYEMHWVRQAPIHGLEWIGVIESETGGTAYNQKFKGRVTITADKSTSTAYMELSSLRSEDTAVYYCAREGITTVATTYYWYFDVWGQGTTVTVSS
VL: DVVMTQSPLSLPVTLGQPASISCRSSQSIVHSNGNTYLEWYLQKPGQSPQLLIYKVSNRFSGVPDRFSGSGSGTDFTLKISRVEAEDVGVYYCFQGSHVTLTFGQGTKLEIK
notes: as for B1
[1]
  Kd: 1.24 nM
  koff: 1.18e-05 s⁻¹
  kon: 9480 M⁻¹ s⁻¹
[2]
  Kd: 19.4 nM
  koff: 0.000259 s⁻¹
  kon: 13400 M⁻¹ s⁻¹

B7: toripalimab Fab L.P100S (Fab, V domains shown)
VH: QGQLVQSGAEVKKPGASVKVSCKASGYTFTDYEMHWVRQAPIHGLEWIGVIESETGGTAYNQKFKGRVTITADKSTSTAYMELSSLRSEDTAVYYCAREGITTVATTYYWYFDVWGQGTTVTVSS
VL: DVVMTQSPLSLPVTLGQPASISCRSSQSIVHSNGNTYLEWYLQKPGQSPQLLIYKVSNRFSGVPDRFSGSGSGTDFTLKISRVEAEDVGVYYCFQGSHVSLTFGQGTKLEIK
notes: as for B1
[1]
  Kd: < 1.59 nM
  koff: < 1e-05 s⁻¹
  kon: 6280 M⁻¹ s⁻¹
[2]
  Kd: 45.9 nM
  koff: 0.00105 s⁻¹
  kon: 22900 M⁻¹ s⁻¹

B8: toripalimab Fab L.P100H (Fab, V domains shown)
VH: QGQLVQSGAEVKKPGASVKVSCKASGYTFTDYEMHWVRQAPIHGLEWIGVIESETGGTAYNQKFKGRVTITADKSTSTAYMELSSLRSEDTAVYYCAREGITTVATTYYWYFDVWGQGTTVTVSS
VL: DVVMTQSPLSLPVTLGQPASISCRSSQSIVHSNGNTYLEWYLQKPGQSPQLLIYKVSNRFSGVPDRFSGSGSGTDFTLKISRVEAEDVGVYYCFQGSHVHLTFGQGTKLEIK
notes: as for B1
[1]
  Kd: 2.24 nM
  koff: 1.56e-05 s⁻¹
  kon: 6960 M⁻¹ s⁻¹
[2]
  Kd: < 1.06 nM
  koff: < 1e-05 s⁻¹
  kon: 9460 M⁻¹ s⁻¹

B9: toripalimab Fab L.P100R (Fab, V domains shown)
VH: QGQLVQSGAEVKKPGASVKVSCKASGYTFTDYEMHWVRQAPIHGLEWIGVIESETGGTAYNQKFKGRVTITADKSTSTAYMELSSLRSEDTAVYYCAREGITTVATTYYWYFDVWGQGTTVTVSS
VL: DVVMTQSPLSLPVTLGQPASISCRSSQSIVHSNGNTYLEWYLQKPGQSPQLLIYKVSNRFSGVPDRFSGSGSGTDFTLKISRVEAEDVGVYYCFQGSHVRLTFGQGTKLEIK
notes: as for B1
[1]
  Kd: 2.13 nM
  koff: 1.32e-05 s⁻¹
  kon: 6230 M⁻¹ s⁻¹
[2]
  Kd: 24.7 nM
  koff: 0.000274 s⁻¹
  kon: 11100 M⁻¹ s⁻¹

B10: toripalimab Fab H.S53A (Fab, V domains shown)
VH: QGQLVQSGAEVKKPGASVKVSCKASGYTFTDYEMHWVRQAPIHGLEWIGVIEAETGGTAYNQKFKGRVTITADKSTSTAYMELSSLRSEDTAVYYCAREGITTVATTYYWYFDVWGQGTTVTVSS
VL: DVVMTQSPLSLPVTLGQPASISCRSSQSIVHSNGNTYLEWYLQKPGQSPQLLIYKVSNRFSGVPDRFSGSGSGTDFTLKISRVEAEDVGVYYCFQGSHVPLTFGQGTKLEIK
notes: heavy chain of Sm3 with this change; numbers count from the chain's first residue; as the light chain of Sm3; source: Brevibacillus, culture supernatant (ammonium sulfate precipitate); not shown: 6xHis, C-terminal, kept; 6xHN, C-terminal, kept
[1]
  Kd: < 1.27 nM
  koff: < 1e-05 s⁻¹
  kon: 7880 M⁻¹ s⁻¹
[2]
  Kd: 94 nM
  koff: 0.00411 s⁻¹
  kon: 43700 M⁻¹ s⁻¹

B11: toripalimab Fab L.P100G (Fab, V domains shown)
VH: QGQLVQSGAEVKKPGASVKVSCKASGYTFTDYEMHWVRQAPIHGLEWIGVIESETGGTAYNQKFKGRVTITADKSTSTAYMELSSLRSEDTAVYYCAREGITTVATTYYWYFDVWGQGTTVTVSS
VL: DVVMTQSPLSLPVTLGQPASISCRSSQSIVHSNGNTYLEWYLQKPGQSPQLLIYKVSNRFSGVPDRFSGSGSGTDFTLKISRVEAEDVGVYYCFQGSHVGLTFGQGTKLEIK
notes: as for B1
[1]
  Kd: 4.99 nM
  koff: 3.76e-05 s⁻¹
  kon: 7550 M⁻¹ s⁻¹
[2]
  Kd: 22.8 nM
  koff: 0.000384 s⁻¹
  kon: 16800 M⁻¹ s⁻¹

B12: toripalimab Fab L.P100M (Fab, V domains shown)
VH: QGQLVQSGAEVKKPGASVKVSCKASGYTFTDYEMHWVRQAPIHGLEWIGVIESETGGTAYNQKFKGRVTITADKSTSTAYMELSSLRSEDTAVYYCAREGITTVATTYYWYFDVWGQGTTVTVSS
VL: DVVMTQSPLSLPVTLGQPASISCRSSQSIVHSNGNTYLEWYLQKPGQSPQLLIYKVSNRFSGVPDRFSGSGSGTDFTLKISRVEAEDVGVYYCFQGSHVMLTFGQGTKLEIK
notes: as for B1
[1]
  Kd: 3.81 nM
  koff: 5.38e-05 s⁻¹
  kon: 14100 M⁻¹ s⁻¹
[2]
  Kd: 8.48 nM
  koff: 0.000121 s⁻¹
  kon: 14200 M⁻¹ s⁻¹

B13: toripalimab Fab L.P100N (Fab, V domains shown)
VH: QGQLVQSGAEVKKPGASVKVSCKASGYTFTDYEMHWVRQAPIHGLEWIGVIESETGGTAYNQKFKGRVTITADKSTSTAYMELSSLRSEDTAVYYCAREGITTVATTYYWYFDVWGQGTTVTVSS
VL: DVVMTQSPLSLPVTLGQPASISCRSSQSIVHSNGNTYLEWYLQKPGQSPQLLIYKVSNRFSGVPDRFSGSGSGTDFTLKISRVEAEDVGVYYCFQGSHVNLTFGQGTKLEIK
notes: as for B1
[1]
  Kd: 1.39 nM
  koff: 2.33e-05 s⁻¹
  kon: 16800 M⁻¹ s⁻¹
[2]
  Kd: 15.9 nM
  koff: 0.0003 s⁻¹
  kon: 18900 M⁻¹ s⁻¹

B14: toripalimab Fab L.P100L (Fab, V domains shown)
VH: QGQLVQSGAEVKKPGASVKVSCKASGYTFTDYEMHWVRQAPIHGLEWIGVIESETGGTAYNQKFKGRVTITADKSTSTAYMELSSLRSEDTAVYYCAREGITTVATTYYWYFDVWGQGTTVTVSS
VL: DVVMTQSPLSLPVTLGQPASISCRSSQSIVHSNGNTYLEWYLQKPGQSPQLLIYKVSNRFSGVPDRFSGSGSGTDFTLKISRVEAEDVGVYYCFQGSHVLLTFGQGTKLEIK
notes: as for B1
[1]
  Kd: 13.8 nM
  koff: 0.000129 s⁻¹
  kon: 9280 M⁻¹ s⁻¹
[2]
  Kd: 9.99 nM
  koff: 0.000147 s⁻¹
  kon: 14700 M⁻¹ s⁻¹

B15: toripalimab Fab L.P100K (Fab, V domains shown)
VH: QGQLVQSGAEVKKPGASVKVSCKASGYTFTDYEMHWVRQAPIHGLEWIGVIESETGGTAYNQKFKGRVTITADKSTSTAYMELSSLRSEDTAVYYCAREGITTVATTYYWYFDVWGQGTTVTVSS
VL: DVVMTQSPLSLPVTLGQPASISCRSSQSIVHSNGNTYLEWYLQKPGQSPQLLIYKVSNRFSGVPDRFSGSGSGTDFTLKISRVEAEDVGVYYCFQGSHVKLTFGQGTKLEIK
notes: as for B1
[1]
  Kd: 7.78 nM
  koff: 5.19e-05 s⁻¹
  kon: 6670 M⁻¹ s⁻¹
[2]
  Kd: 60.6 nM
  koff: 0.000824 s⁻¹
  kon: 13600 M⁻¹ s⁻¹
